Source: publication PMC5515880 (Scientific Reports, 2017)

What was measured:
[1] = target: T1, GST-N protein (MHV N protein as a GST fusion construct) (mouse hepatitis virus (MHV-A59), UniProt P03416 1-454); test: pull-down; details: one partner purified
T1 sequence: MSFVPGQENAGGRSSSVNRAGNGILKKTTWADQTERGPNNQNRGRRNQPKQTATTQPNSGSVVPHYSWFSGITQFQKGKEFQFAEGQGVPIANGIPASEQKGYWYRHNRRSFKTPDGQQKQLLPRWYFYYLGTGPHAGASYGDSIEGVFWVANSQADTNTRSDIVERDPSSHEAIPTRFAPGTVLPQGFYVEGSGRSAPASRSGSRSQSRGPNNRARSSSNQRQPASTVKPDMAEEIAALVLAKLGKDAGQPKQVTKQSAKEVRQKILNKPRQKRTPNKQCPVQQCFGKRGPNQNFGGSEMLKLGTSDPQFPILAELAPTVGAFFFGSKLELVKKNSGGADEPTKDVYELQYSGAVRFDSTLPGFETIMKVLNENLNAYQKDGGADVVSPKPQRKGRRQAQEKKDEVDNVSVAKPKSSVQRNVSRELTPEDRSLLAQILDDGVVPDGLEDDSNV

[2] = target: T2, 6xHis-tagged N2b-N3 truncation of MHV N protein (mouse hepatitis virus (MHV-A59), UniProt P03416 258-454); test: pull-down; details: one partner purified
T2 sequence: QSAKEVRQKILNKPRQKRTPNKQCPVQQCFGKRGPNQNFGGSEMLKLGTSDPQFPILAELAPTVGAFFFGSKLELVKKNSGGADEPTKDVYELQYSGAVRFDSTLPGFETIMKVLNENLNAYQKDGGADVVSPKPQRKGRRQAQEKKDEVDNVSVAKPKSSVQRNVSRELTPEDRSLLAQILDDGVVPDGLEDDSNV

B1: 6xHis-tagged full length MHV N protein (natural protein)
chain: T1 sequence
**Q.** Does B1 bind [1]?
**A.** Result: binds

B2: GST-N1 (MHV N protein truncation) (domain or fragment)
chain: MSFVPGQENAGGRSSSVNRAGNGILKKTTWADQTERGPNNQNRGRRNQPKQTATTQPNSGSVVPHYSWFSGITQFQKGKEFQFAEGQGVPIANGIPASEQKGYWYRHNRRSFKTPDGQQKQLLPRWYFYYLGTGPHAGASYGDSIEGVFWVANSQADTNTRSDIVERDPSSHEAIPTRFAPGTVLPQGFYVEGS
**Q.** Does B2 bind [2]?
**A.** Result: binds
